Test results taken from the supplement of paper PMC7877785.
± gives the uncertainty stated by the source.

Assay: self-splicing fitness, log relative to wild type (ln ratio); higher = more splicing; Tetrahymena group I intron in knt gene, E. coli kanamycin selection, DiMSum; sequences stand for … in CUCUCU…GGAGGGAAAAGUUAUCAGGCAUGCACCUGGUAGCUAGUCUUUAAACCAAUAGAUUGCAUCGGUUUAAAAGGCAAGACCGUCAAAUUGCGGGAAAGGGGUCAACAGCCGUUCAGUACCAAGUCUCAGGGGAAACUUUGAGAUGGCCUUGCAAAGGGUAUGGUAAUAAGCUGACGGACAUGGUCCUAACCACGCAGCCAAGUCCUAAGUCAACAGAUCUUCUGUUGAUAUGGAUGCAGUUCACAGACUAAAUGUCGGUCGGGGAAGAUGUAUUCUUCUCAUAAGAUAUAGUCGGACCUCUCCUUAAUGGGAGCUAGCGGAUGAAGUGAUGCAACACUGGAGCCGCUGGGAACUAAUUUGUAUGCGAAAGUAUAUUGAUUAGUUUUGGAGUACUCGUGGUCG
Method in brief: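 Library with all eight P1ex-region intron nucleotides randomised, intron inside the knt kanamycin-resistance gene on pET-22b(+), in E. coli BL21(DE3). Cells grew overnight at 37°C or 30°C on LB agar with or without 25 μg/mL kanamycin (plus 100 μg/mL carbenicillin, 50 μM IPTG, 0.2% rhamnose), in six replicate transformations. Pooled colonies were amplicon-sequenced on Illumina HiSeq 2500. DiMSum fitness is the error-weighted combination of wild-type-normalised replicate fold changes, kanamycin versus none.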

| Sequence | self-splicing fitness (ln) (30 °C) | self-splicing fitness (ln) (37 °C) |
| --- | --- | --- |
| UAAAAGCAAUAUUACGUCCU | -0.564 ± 0.095 | 0.00684 ± 0.13 |
| UAAAAGCAAUAUUACGUCGU | -3.29 ± 0.13 | -2.17 ± 0.11 |
| UAAAAGCAAUAUUACGUCUC | -3.48 ± 0.17 | -3 ± 0.17 |
| UAAAAGCAAUAUUACGUGAA | -1.36 ± 0.082 | -1.06 ± 0.1 |
| UAAAAGCAAUAUUACGUGAG | -0.888 ± 0.044 | -0.622 ± 0.078 |
| UAAAAGCAAUAUUACGUGGU | -3.53 ± 0.13 | -2.28 ± 0.14 |
| UAAAAGCAAUAUUACGUUAG | -1.37 ± 0.069 | -1.33 ± 0.088 |
| UAAAAGCAAUAUUACGUUCU | -1.87 ± 0.14 | -1.13 ± 0.14 |
| UAACAGCAAUAUUACGAAUA | -0.62 ± 0.1 | -0.528 ± 0.1 |
| UAACAGCAAUAUUACGAUUG | -1.57 ± 0.056 | -0.741 ± 0.082 |
| UAACAGCAAUAUUACGCAAU | -2.89 ± 0.15 | -0.816 ± 0.15 |
| UAACAGCAAUAUUACGCCAG | -2.03 ± 0.12 | -1.42 ± 0.18 |
| UAACAGCAAUAUUACGCGGC | -3.99 ± 0.28 | -2.65 ± 0.35 |
| UAACAGCAAUAUUACGGAGC | – | -2.58 ± 0.29 |
| UAACAGCAAUAUUACGGCAU | -1.85 ± 0.093 | 0.0326 ± 0.093 |
| UAACAGCAAUAUUACGGCGC | -2.5 ± 0.13 | -1.44 ± 0.13 |
| UAACAGCAAUAUUACGGGAC | -4.36 ± 0.17 | -1.89 ± 0.13 |
| UAACAGCAAUAUUACGGGAU | -3.08 ± 0.15 | -2.43 ± 0.16 |
| UAACAGCAAUAUUACGGGCG | -0.476 ± 0.064 | 0.217 ± 0.087 |
| UAACAGCAAUAUUACGGGGC | -3.63 ± 0.19 | -2.86 ± 0.24 |
| UAACAGCAAUAUUACGGUGG | -1.67 ± 0.067 | -1.06 ± 0.084 |
| UAACAGCAAUAUUACGUACG | -0.675 ± 0.047 | -0.193 ± 0.069 |
| UAACAGCAAUAUUACGUAGA | -2.81 ± 0.071 | -1.37 ± 0.086 |
| UAACAGCAAUAUUACGUCAG | -1.53 ± 0.073 | -0.0779 ± 0.085 |
| UAACAGCAAUAUUACGUCCC | -2.98 ± 0.34 | -1.38 ± 0.27 |
| UAACAGCAAUAUUACGUGUC | -4.05 ± 0.14 | -2.35 ± 0.13 |

| Sequence | self-splicing fitness (ln) (30 °C) | self-splicing fitness (ln) (37 °C) |
| --- | --- | --- |
| UAACAGCAAUAUUACGUGUG | -1.23 ± 0.042 | -0.692 ± 0.055 |
| UAACAGCAAUAUUACGUGUU | -3.78 ± 0.14 | -2.34 ± 0.12 |
| UAACAGCAAUAUUACGUUAU | -3.22 ± 0.16 | -2.96 ± 0.23 |
| UAAGAGCAAUAUUACGAAAG | -3.88 ± 0.31 | -1.92 ± 0.23 |
| UAAGAGCAAUAUUACGACCC | -2.18 ± 0.37 | – |
| UAAGAGCAAUAUUACGACCG | -2.9 ± 0.35 | -2.21 ± 0.25 |
| UAAGAGCAAUAUUACGACCU | -1.34 ± 0.23 | – |
| UAAGAGCAAUAUUACGACGC | -2.96 ± 0.32 | -2.07 ± 0.43 |
| UAAGAGCAAUAUUACGACUA | -0.436 ± 0.11 | 0.314 ± 0.11 |
| UAAGAGCAAUAUUACGAUGC | -3.73 ± 0.42 | -2.34 ± 0.33 |
| UAAGAGCAAUAUUACGCAAA | -2.38 ± 0.21 | -2.44 ± 0.21 |
| UAAGAGCAAUAUUACGCACG | -2.42 ± 0.15 | -1.84 ± 0.15 |
| UAAGAGCAAUAUUACGCAGU | – | -2.38 ± 0.28 |
| UAAGAGCAAUAUUACGCCUA | -2.03 ± 0.15 | -1.41 ± 0.12 |
| UAAGAGCAAUAUUACGCGUG | -2.33 ± 0.13 | -1.88 ± 0.13 |
| UAAGAGCAAUAUUACGCUAA | – | -1.77 ± 0.27 |
| UAAGAGCAAUAUUACGCUUC | -3.71 ± 0.25 | -2.46 ± 0.25 |
| UAAGAGCAAUAUUACGGAAG | -2.8 ± 0.41 | – |
| UAAGAGCAAUAUUACGGCCA | -1.81 ± 0.3 | -1.48 ± 0.37 |
| UAAGAGCAAUAUUACGGCGC | -2.68 ± 0.32 | -2.01 ± 0.41 |
| UAAGAGCAAUAUUACGGCUG | -1.55 ± 0.12 | -0.424 ± 0.18 |
| UAAGAGCAAUAUUACGGUGG | -4.17 ± 0.33 | -2.36 ± 0.26 |
| UAAGAGCAAUAUUACGGUGU | -2.19 ± 0.14 | -3.27 ± 0.47 |
| UAAGAGCAAUAUUACGGUUC | -2.19 ± 0.21 | -2.14 ± 0.46 |
| UAAGAGCAAUAUUACGUAUG | -5.26 ± 0.45 | -2.47 ± 0.34 |
| UAAGAGCAAUAUUACGUCAU | -2.21 ± 0.14 | -2.22 ± 0.24 |

| Sequence | self-splicing fitness (ln) (30 °C) | self-splicing fitness (ln) (37 °C) |
| --- | --- | --- |
| UAAGAGCAAUAUUACGUCUA | -0.273 ± 0.093 | -0.548 ± 0.1 |
| UAAGAGCAAUAUUACGUUAU | -3.21 ± 0.44 | – |
| UAAUAGCAAUAUUACGAACC | -3.22 ± 0.49 | -2.27 ± 0.39 |
| UAAUAGCAAUAUUACGAAUU | – | -2.58 ± 0.24 |
| UAAUAGCAAUAUUACGACGC | -2.84 ± 0.34 | – |
| UAAUAGCAAUAUUACGAUUU | -2 ± 0.11 | -1.13 ± 0.11 |
| UAAUAGCAAUAUUACGCCAU | -2.36 ± 0.22 | -1.55 ± 0.23 |
| UAAUAGCAAUAUUACGCCUG | -0.203 ± 0.13 | -0.254 ± 0.16 |
| UAAUAGCAAUAUUACGCCUU | -3.48 ± 0.21 | -1 ± 0.14 |
| UAAUAGCAAUAUUACGCGAC | -3.42 ± 0.35 | -1.61 ± 0.34 |
| UAAUAGCAAUAUUACGCUCG | 0.447 ± 0.16 | 0.265 ± 0.18 |
| UAAUAGCAAUAUUACGGCAU | -3.26 ± 0.18 | -2.28 ± 0.23 |
| UAAUAGCAAUAUUACGGGCG | -1.45 ± 0.1 | -0.567 ± 0.13 |
| UAAUAGCAAUAUUACGUAGC | -2.63 ± 0.35 | -2.19 ± 0.26 |
| UAAUAGCAAUAUUACGUCGC | -3.86 ± 0.43 | -1.71 ± 0.35 |
| UAAUAGCAAUAUUACGUGAC | -3.71 ± 0.22 | -2.78 ± 0.22 |
| UAAUAGCAAUAUUACGUGAG | -1.76 ± 0.088 | -1.47 ± 0.12 |
| UAAUAGCAAUAUUACGUGUC | -3.02 ± 0.23 | -2.44 ± 0.3 |
| UAAUAGCAAUAUUACGUUGG | -3.11 ± 0.13 | -0.991 ± 0.11 |
| UACAAGCAAUAUUACGAAAG | -2.61 ± 0.11 | -2.37 ± 0.16 |
| UACAAGCAAUAUUACGAAGU | -4.09 ± 0.42 | -1.97 ± 0.24 |
| UACAAGCAAUAUUACGACCC | -2.31 ± 0.46 | – |
| UACAAGCAAUAUUACGACGA | -0.323 ± 0.065 | 0.0319 ± 0.075 |
| UACAAGCAAUAUUACGACUA | -0.188 ± 0.062 | 0.316 ± 0.083 |
| UACAAGCAAUAUUACGAGAU | -3.65 ± 0.28 | -3.07 ± 0.28 |
| UACAAGCAAUAUUACGCACG | -1.29 ± 0.094 | 0.0257 ± 0.1 |
